In patent publication US20200002406A1 (Janssen / Centocor, published 2020):

Legend:
[1] = target: human FcγRIIIa receptor (FcγRIIIa V158) (human, UniProt P08637 17-254); assay: cell-based or functional assay
[2] = target: T1, neuraminidase (NA) of influenza A virus H5N1 A/Hong Kong/156/97 (Influenza A virus A/Hong Kong/156/97 …, UniProt Q9W7Y7 1-450); assay: flow cytometry on 293-F cells transfected with NA
T1 construct: also called A/Hong Kong/156/97 (H5N1); NA of influenza virus A N1 subtype

[3] = target: T2, neuraminidase (NA) of influenza B virus B/Malaysia/2506/2004 (Victoria lineage) (Influenza B virus B/Malaysia/2506/2004); assay: cell-based or functional assay
[4] = target: neuraminidase (NA) of influenza A virus H1N1 strain A/New Caledonia/20/1999 (Influenza A virus A/New …); assay: cell-based or functional assay
[5] = target: neuraminidase (NA) of influenza A virus H3N2 strain A/Perth/16/2009 (Influenza A virus A/Perth/16/2009 (H3N2)); assay: cell-based or functional assay
[6] = target: T3, neuraminidase (NA) of influenza B virus B/Florida/04/2006 (Yamagata lineage) (Influenza B virus B/Florida/04/2006); assay: cell-based or functional assay
[7] = target: T2, neuraminidase (NA) of influenza B virus …; assay: cell-based or functional assay; remark: listed apart in the source
[8] = target: T3, neuraminidase (NA) of influenza B virus …; assay: cell-based or functional assay; remark: listed apart in the source

T1 sequence (Q9W7Y7 whole entry): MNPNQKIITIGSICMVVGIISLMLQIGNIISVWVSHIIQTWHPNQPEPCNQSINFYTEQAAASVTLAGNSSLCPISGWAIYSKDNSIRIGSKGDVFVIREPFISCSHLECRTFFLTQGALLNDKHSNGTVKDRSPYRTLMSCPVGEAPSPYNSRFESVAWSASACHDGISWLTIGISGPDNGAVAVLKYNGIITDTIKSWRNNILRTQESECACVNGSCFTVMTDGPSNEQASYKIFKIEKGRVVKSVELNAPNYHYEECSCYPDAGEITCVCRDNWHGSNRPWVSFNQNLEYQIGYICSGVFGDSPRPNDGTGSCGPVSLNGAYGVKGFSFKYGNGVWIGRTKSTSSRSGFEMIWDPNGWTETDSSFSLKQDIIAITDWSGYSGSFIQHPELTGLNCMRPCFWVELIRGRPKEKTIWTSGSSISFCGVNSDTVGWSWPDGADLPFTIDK
Sequence of human FcγRIIIa receptor (FcγRIIIa V158) (P08637 17-254 F176V limits assumed): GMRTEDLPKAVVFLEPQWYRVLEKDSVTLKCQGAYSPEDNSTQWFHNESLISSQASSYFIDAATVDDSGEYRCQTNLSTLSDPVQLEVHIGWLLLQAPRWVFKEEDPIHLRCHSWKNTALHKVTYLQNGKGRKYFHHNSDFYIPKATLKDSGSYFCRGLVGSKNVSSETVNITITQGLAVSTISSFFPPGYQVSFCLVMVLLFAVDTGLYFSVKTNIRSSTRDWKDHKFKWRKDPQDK

Row | Binder | ADCC Reporter Bioassay EC50; A549 target cells infected with B/Lee/1940 [1] | MFI [2] | Neuraminidase inhibition activity, EC50 (NA-XTD assay, whole virus) [3] | Neuraminidase inhibition activity, EC50 (NA-XTD assay, whole virus) [4] | Neuraminidase inhibition activity, EC50 (NA-XTD assay, whole virus) [5] | Neuraminidase inhibition activity, EC50 (NA-XTD assay, whole virus) [6] | Virus neutralization assay (VNA) on MDCK-SIAT1 cells, IC50 [7] | Virus neutralization assay (VNA) on MDCK-SIAT1 cells, IC50 [8]
1 | CR14017 (antibody, V domains shown, also called sc14-017; anti-NA IgG) VH: EVQLVETGGGVVQPGRSLRLSCAASGFTFNTHAMHWVRQAPGKGLEWLAVISYDGNIKYYADSVKGRFTISRDSSKNTLYLLMNSLRAEDTAIYYCARDRGDYNYLPSDYWGQGTLVTVSS VL: not shown | 0.08 µg/mL | < 250 mfi | – | – | – | – | – | –
2 | CR14012 (antibody, V domains shown, also called sc14-012; anti-NA IgG) VH: QVQLQESGGGVVQPGRSLRLSCAASGFSFSTYGMHWVRQAPGKGLEWVAVISYDGSNKYYADSVKGRFTISRDNAKNTLYLQMNSLRAEDTAVYYCGRDSGYTTNWYPGGYWGQGTLVTVSS VL: not shown | – | < 250 mfi | – | – | – | – | – | –
3 | CR14011 (antibody, V domains shown, also called sc14-011; anti-NA IgG) VH: EVQLVETGGGVVQPGRSLRLSCSVSGFSFTTYAMHWVRQAPGKGLEWVAIISDDATKKYYADSVKGRFTISRDNSRNTLILQMNSLRAEDTGVYYCAKDGDPGYDSRYYYYYGMDVWGQGTTVTVSS VL: SYVLTQPPSVSVAPGKTARITCGGNNIGSKSVHWYQQKPGQAPVLVIYYDSDRPSGIPERFSGSNSGNTATLTISRVEAGDEADYYCQVWDSSSDHPVFGGGTKLTVL | – | < 250 mfi | 0.013 µg/mL | > 50 µg/mL | > 50 µg/mL | 0.004 µg/mL | 1.19 µg/mL | 2.21 µg/mL
